The results in this text go back to PMC11418127, “Structures of LIG1 uncover the mechanism of sugar discrimination against 5′-RNA-DNA junctions during ribonucleotide excision repair”.

Series [1] concerns the target LIG1 WT (C-terminal, Δ261) (UniProt P18858 262-919). As to the kind of experiment: X-ray crystallography; AMP covalently bound to K568 (step 1); 1 mM ATP, 1 mM EDTA; Crystallization: 20 mM Tris-HCl pH 7.0, 200 mM NaCl, 1 mM DTT, 1 mM EDTA, 1 mM ATP, LIG1 27 mg/ml, DNA:protein 1.4:1, hanging drop at 20 °C. The note with it: protein: recombinant; tags: 6xHis; nicked duplex: 18-nt template, 11-nt upstream, 7-nt downstream; blunt outer ends.

In series [2] the target is LIG1 EE/AA (C-terminal, Δ261) (UniProt P18858 262-919, E346A;E592A). The series is described as above. The conditions noted are these: protein: recombinant; tags: 6xHis; nicked duplex: 18-nt template, 11-nt upstream, 7-nt downstream; blunt outer ends.
LIG1 EE/AA (C-terminal, Δ261), sequence (P18858 262-919 E346A/E592A): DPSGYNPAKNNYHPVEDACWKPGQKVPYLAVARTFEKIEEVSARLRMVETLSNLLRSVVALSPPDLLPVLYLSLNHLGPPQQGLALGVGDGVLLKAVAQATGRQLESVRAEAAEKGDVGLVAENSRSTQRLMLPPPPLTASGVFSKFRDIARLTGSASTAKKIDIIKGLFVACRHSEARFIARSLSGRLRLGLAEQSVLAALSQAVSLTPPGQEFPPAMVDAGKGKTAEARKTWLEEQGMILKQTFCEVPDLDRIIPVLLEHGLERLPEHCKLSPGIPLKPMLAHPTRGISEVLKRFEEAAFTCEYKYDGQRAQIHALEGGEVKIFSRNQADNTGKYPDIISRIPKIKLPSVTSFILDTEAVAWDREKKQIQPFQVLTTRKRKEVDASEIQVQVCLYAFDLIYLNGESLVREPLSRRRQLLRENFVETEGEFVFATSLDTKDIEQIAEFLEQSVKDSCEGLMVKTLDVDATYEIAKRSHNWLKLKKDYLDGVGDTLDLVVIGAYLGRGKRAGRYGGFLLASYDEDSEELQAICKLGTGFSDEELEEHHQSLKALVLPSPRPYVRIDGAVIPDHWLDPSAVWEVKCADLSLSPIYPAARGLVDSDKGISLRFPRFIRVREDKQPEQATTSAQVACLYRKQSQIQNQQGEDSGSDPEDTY

LIG1 WT (C-terminal, Δ261), sequence (P18858 262-919, stated change not applied): as the sequence (P18858 262-919 E346A/E592A) above, with A85E, A331E counted along it

B1: nick DNA 5'-rG:C (mixed)
DNA 1: GTCCGACCACGCATCAGC
DNA 2: GCTGATGCGTG
DNA 3: GTCGGAC
modifications: ribonucleotide rG at position 1 of downstream strand (strand 3); 5'-phosphate on strand 3
As for B1, the binding result in series [1] and in series [2] was “binds” throughout.
